# Results published in patent publication US20190204338A1, “Methods for the Characterisation of Interaction Sites on Target Proteins” (Phylogica Limited, priority 2012, published 2019).
# B1: 4G9: AP1-inhibitory Phylomer, SEQ ID NO: 6 (LKHRDYWVPL LYFFFVLITM ...), identified by phenotypic screening (protein)
# chain: LKHRDYWVPLLYFFFVLITMFWDLYCHSGQYLYEARSLLPFYLFPFLIAALRIGDIVVDTRCRNVENLGGFERSAESSRYVQLSLYERQWFRLRYRAYGGNLRCLAGDLVENWRLWKEVNSKAAKDIDGAVMLRFFLPPRDLARLVTLLAALIAVIATLIITLAIV
# modifications: Protein fragment of unknown organism
# Columns and labels:
# FOXO class Forkhead = test: Heterologous reporter construct specificity test (FOXO class Forkhead); type: cell-based; settings: data not shown
# Description: (§1) Transfection of these Phylomers was not generally cytotoxic as assessed by cell viability using the Cell Titre Blue system (Promega) (data not shown). To initially assess their specificity for AP1 inhibition, we tested these hits against two heterologous reporter constructs designed to detect the activation of two distinct transcription factors, namely Notch and FOXO class Forkhead.
# Notch = test: Heterologous reporter construct specificity test (Notch); type: cell-based; settings: data not shown
# Description: as §1
molecule,measurement,setting,value
B1,Effect on FOXO class Forkhead reporter construct,FOXO class Forkhead,generally inhibited all reporter constructs
same,Effect on Notch reporter construct,Notch,generally inhibited all reporter constructs
